Experimental findings from paper PMC8624154 are described below.

In the test the target is recombinant extracellular domain of rabies virus glycoprotein (RABVG, CVS strain) with T4 fibritin t (rabies virus (CVS strain)). Briefly: SEC; rRABVG on Superdex 200 10/300 GL after HisTrap; single peak. A general note: Size exclusion chromatography separates by hydrodynamic size, large species first.

As a reminder, the stoichiometry N is a count of units in the complex or per binding partner. Consider “recombinant extracellular domain of rabies virus glycoprotein (RABVG, CVS strain) with T4 fibritin t (domain or fragment)”, for which the stoichiometry N was 3.
